Reference: patent US20130224224A1 (Boehringer Ingelheim, published 2013)
Residue numbers refer to the chain shown, from its start. Names may count otherwise.

T1: human CX3CR1 (human, UniProt P49238 1-355)
T1 construct: overexpressed on CHO, BA/F3 or HEK293T cells; also called huCX3CR1; hCX3CR1
T1 sequence: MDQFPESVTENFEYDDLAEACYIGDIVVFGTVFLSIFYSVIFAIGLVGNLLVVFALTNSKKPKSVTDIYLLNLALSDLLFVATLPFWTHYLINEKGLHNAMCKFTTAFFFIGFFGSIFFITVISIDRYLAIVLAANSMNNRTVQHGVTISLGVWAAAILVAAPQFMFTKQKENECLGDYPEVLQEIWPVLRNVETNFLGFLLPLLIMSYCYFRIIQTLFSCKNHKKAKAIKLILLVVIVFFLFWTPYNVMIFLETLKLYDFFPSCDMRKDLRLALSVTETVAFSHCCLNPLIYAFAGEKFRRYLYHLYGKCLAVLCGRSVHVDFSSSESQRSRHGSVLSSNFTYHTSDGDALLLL

T2: cynomolgus CX3CR1 (cynomolgus, UniProt P49238 1-355 (human entry))
T2 construct: transiently expressed on HEK293T cells; also called cyCX3CR1; cyno CX3CR1
T2 chain: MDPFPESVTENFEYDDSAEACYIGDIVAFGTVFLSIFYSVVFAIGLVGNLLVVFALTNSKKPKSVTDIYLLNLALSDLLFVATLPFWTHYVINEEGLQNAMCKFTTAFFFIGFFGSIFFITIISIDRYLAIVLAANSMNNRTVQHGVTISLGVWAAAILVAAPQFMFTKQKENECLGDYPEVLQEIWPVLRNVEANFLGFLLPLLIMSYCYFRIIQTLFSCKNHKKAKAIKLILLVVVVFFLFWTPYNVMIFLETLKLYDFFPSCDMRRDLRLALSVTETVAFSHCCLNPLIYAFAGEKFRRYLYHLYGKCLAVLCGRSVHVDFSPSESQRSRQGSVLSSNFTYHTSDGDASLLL

B1: C100CX3CR1BII043 (VHH)
VHH: EVQLVESGGGSVQPGESLRLSCAASGSIFSSNAMAWYRQAPGKRRDLVAAINSVGVTKYADSVKGRFTISRDNSKNTVYLQMNSLRPEDTAVYYCTSDPRRGWDTRYWGQGTLVTVSS
notes: 66B02 with A14P, A74S, K83R, Q108L; not shown: myc/His tag
B2: C100CX3CR1BII049 (VHH)
VHH: B1 VHH with R44Q
notes: 66B02 with A14P, R44Q, A74S, K83R, Q108L; not shown: myc/His tag
B3: C100CX3CR1BII057 (VHH)
VHH: B1 VHH with S11L, E16G, D46E
notes: 66B02 with S11L, A14P, E16G, D46E, A74S, K83R, Q108L; not shown: myc/His tag
B4: C100CX3CR1BII048 (VHH)
VHH: B1 VHH with E16G
notes: 66B02 with A14P, E16G, A74S, K83R, Q108L; not shown: myc/His tag
B5: C100CX3CR1BII045 (VHH)
VHH: B1 VHH with E1D
notes: 66B02 with E1D, A14P, A74S, K83R, Q108L; not shown: myc/His tag
B6: C100CX3CR1BII060 (VHH)
VHH: B1 VHH with S11L, E16G, R44Q, D46E
notes: 66B02 with S11L, A14P, E16G, R44Q, D46E, A74S, K83R, Q108L; not shown: myc/His tag
B7: C100CX3CR1BII061 (VHH)
VHH: B1 VHH with S11L, E16G
notes: 66B02 with S11L, A14P, E16G, A74S, K83R, Q108L; not shown: myc/His tag
B8: C100CX3CR1BII047 (VHH)
VHH: B1 VHH with S11L
notes: 66B02 with S11L, A14P, A74S, K83R, Q108L; not shown: myc/His tag
B9: C100CX3CR1BII056 (VHH)
VHH: B1 VHH with S11L, E16G, R44Q
notes: 66B02 with S11L, A14P, E16G, R44Q, A74S, K83R, Q108L; not shown: myc/His tag
B10: C100CX3CR1BII050 (VHH)
VHH: B1 VHH with D46E
notes: 66B02 with A14P, D46E, A74S, K83R, Q108L; not shown: myc/His tag
B11: CX3CR1BII66B02 (N52Q, Q108L) (VHH, name in Kabat numbering)
VHH: B1 VHH with P14A, N52Q, S74A, R86K
notes: Kabat numbering
B12: CX3CR1BII66B02 (S53G, Q108L) (VHH, name in Kabat numbering)
VHH: B1 VHH with P14A, S53G, S74A, R86K
notes: Kabat numbering
B13: CX3CR1BII66B02 (N52S, Q108L) (VHH, name in Kabat numbering)
VHH: B1 VHH with P14A, N52S, S74A, R86K
B14: CX3CR1BII66B02 (S53T, Q108L) (VHH, name in Kabat numbering)
VHH: B1 VHH with P14A, S53T, S74A, R86K
notes: Kabat numbering
B15: CX3CR1BII66B02 (S53P, Q108L) (VHH, name in Kabat numbering)
VHH: B1 VHH with P14A, S53P, S74A, R86K
notes: Kabat numbering
B16: CX3CR1BII66B02 (N52G, Q108L) (VHH, name in Kabat numbering)
VHH: B1 VHH with P14A, N52G, S74A, R86K
notes: Kabat numbering
B17: CX3CR1BII66B02 (N52T, Q108L) (VHH, name in Kabat numbering)
VHH: B1 VHH with P14A, N52T, S74A, R86K
notes: Kabat numbering
B18: CX3CR1BIIPMP54H1 (VHH)
VHH: EVQLVESGGGSVQAGESLRLSCAASGTIFSSNAMAWYRQAPGKQRDLVAGINSVDITKYADSVKGRFTVSRDNAKNTVYLQMNSLKPEDTAVYYCTSDPRRGWNTRYWGQGTQVTVSS
notes: also called 54H01; not shown: C-terminal c-myc and His6 tags
B19: CX3CR1BIIPMP54A4 (VHH)
VHH: B18 VHH with G9R, T27S, D55G, V69I, N104D
notes: also called 54A04; not shown: C-terminal c-myc and His6 tags
B20: CX3CR1BIIPMP54H4 (VHH)
VHH: B18 VHH with T27S, G50V, D55G, V69I, R71G, P99A, N104D, Q113L
notes: tested as periplasmic extract; not shown: C-terminal c-myc and His6 tags
B21: CX3CR1BIIPMP61A11 (VHH)
VHH: B18 VHH with G8R, T27S, G50V, D55G, V69I, R71G, P99A, N104D
notes: as for B20
B22: CX3CR1BIIPMP54B2 (VHH)
VHH: B18 VHH with V69I, Q113L
notes: as for B20
B23: CX3CR1BIIPMP61F10 (VHH)
VHH: B18 VHH with E1K, V69I
notes: as for B20
B24: CX3CR1BIIPMP61D5 (VHH)
VHH: B18 VHH with E1K, T27S, P41F, G50L, D55G, V69I, N104D
notes: as for B20
B25: CX3CR1BIIPMP61G2 (VHH)
VHH: B18 VHH with E6K, T27S, G50L, D55G, V69I, N104D
notes: as for B20
B26: CX3CR1BIIPMP54A3 (VHH)
VHH: B18 VHH with T27S, D55G, V69I, N104D
notes: as for B20
B27: CX3CR1BIIPMP54A5 (VHH)
VHH: B18 VHH with T27S, D55G, V69I, N104D, Q113L
notes: as for B20
B28: CX3CR1BIIPMP54B5 (VHH)
VHH: B18 VHH with T27S, D55G, V69I, V78A, N104D, Q113L
notes: tested as periplasmic extract; also called CX3CR1BII54B5; not shown: C-terminal c-myc and His6 tags
B29: CX3CR1BIIPMP61F4 (VHH)
VHH: B18 VHH with E16A, T27S, G50V, S53T, D55G, V69I, P99A, N104D, Q113L
notes: as for B20
B30: CX3CR1BIIPMP54F6 (VHH)
VHH: B1 VHH with E1K, P14A, R44Q, V56I, S74A, R86K
notes: as for B20
B31: CX3CR1BIIPMP54B1 (VHH)
VHH: B18 VHH with T27S, D55G, V69I, V78A, N104D
notes: as for B20
B32: CX3CR1BIIPMP61D1 (VHH)
VHH: B18 VHH with T27S, P41F, G50L, D55G, V69I, N104D
notes: as for B20
B33: CX3CR1BIIPMP61C9 (VHH)
VHH: EVQLVKSGGGSVQAGESLRLSCAASGSIFSSNAMAWYRQALGKQRDLVALIDSAGITKYADSVKGRFTISRDNAKNTVYLQMNRLKPEDTAVYYCASDARRGWNTKYWGQGTLVTVSS
notes: as for B20

What follows are binders tested against T1, human CX3CR1 (assay: fractalkine competition FACS).
In the case of B1, the “% block” value is reported as 101% and the IC50 is reported as 2.2 nM. For B2, the “% block” value was 101% and the IC50 was 18 nM. With B3 the “% block” value was 99.4% and the IC50 was 14 nM. In the case of B4, the “% block” value is reported as 101% and the IC50 is reported as 1.9 nM. B5 was tested, and the “% block” value was 101% and the IC50 was 2.2 nM. In the case of B6, the “% block” value is reported as 98.4% and the IC50 is reported as 190 nM. With B7 the “% block” value was 98.9% and the IC50 was 1.4 nM. With B8 the “% block” value was 101% and the IC50 was 2.3 nM. With B9 the “% block” value was 101% and the IC50 was 16 nM. For B10, the “% block” value was 101% and the IC50 was 17 nM.

Target: T1, human CX3CR1
Test: fractalkine competition FACS
Remark: another data set of the same source
B11 was tested, and the “% block” value was 97.9% and the IC50 was 2.1 nM. B12 was tested, and the “% block” value was 98.3% and the IC50 was 1.2 nM. With B13 the “% block” value was 98% and the IC50 was 1.7 nM. For B14, the “% block” value was 98.1% and the IC50 was 1.3 nM. For B15, the “% block” value was 98.2% and the IC50 was 0.8 nM. B16 was tested, and the “% block” value was 98% and the IC50 was 1.1 nM. B17 was tested, and the “% block” value was 98% and the IC50 was 2.8 nM.

The binders below were run against T1, human CX3CR1 (assay: A647-fractalkine competition FACS, HEK293-huCX3CR1).
Excerpt: (§1) Periplasmic extracts were screened in a human CX3CR1/human Fractalkine FACS competition assay to assess the blocking capacity of the expressed VHHs. Human CX3CR1 was presented on CHO cells overexpressing CX3CR1. Both a setup using cells harvested from an actively growing culture and a setup using frozen cells was used. As a detection reagent labeled fractalkine was used (R&D Systems, Minneapolis, Minn., USA) labeled with alexa647 (A647-Fractalkine) at a degree of labeling of 1. To setup the assay, first a titration series of the labeled fractalkine was performed on the CHO-huCX3CR1 cells in order to determine the EC50 value for binding. Initially screening was performed at a higher concentration of fractalkine (3 nM) to increase the assay robustness. To increase the sensitivity of the screening to a maximum, the EC30 concentration (1 nM) was chosen for subsequent screening. In brief 50 μl of periplasmic extract was added to 6 nM labeled fractalkine (50 μ;) and 200 000 CHO-huCX3CR1 cells. After one hour incubation at 4 C, cells were washed three times before read out was performed on a FACS Array (Becton Dickinson). First a gate was set on the intact cells as determined from the scatter profile. Next, dead cells were gated out by their fluorescence profile from the PI stain (Sigma, St Louis, US). The fluorescence profile from the alexa647 label was determined for each sample and used for calculation of blocking capacity. As controls, conditions were taken along where there was no VHH present in the peri extract or a known irrelevant VHH and samples were included where excess cold fractalkine was included. For each sample the percentage block was determined using the control samples to determine the assay window.
The blocking capacity towards the ligand fractalkine of the VHHs was evaluated in a human CX3CR1 competition FACS as outlined in Example 4. Either CHO-huCX3CR1 cells, BA/F3-huCX3CR1 cells or transiently transfected HEK293T cells were used. The amount of labeled ligand used in the different competition setups was also varied. The IC₅₀ values for VHHs blocking the interaction of human fractalkine to human CX3CR1 are depicted in Table 19.
In the case of B18, the “% block” value is reported as 64% and the IC50 is reported as 10 nM. In the case of B19, the “% block” value is reported as 100% and the IC50 is reported as 49 nM.

What follows are binders tested against T1, human CX3CR1 (assay: A647-fractalkine competition FACS, HEK293T human CX3CR1).
Excerpt: as §1
(§2) For later identified VHHs, a human Fractalkine competition FACS was set up using human or cynomolgus CX3CR1 expressed in HEK293T cells. Both the human and the cynomolgus receptor was transiently transfected in HEK293T cells and transfections were matched by the binding of the labeled ligand, human fractalkine. The competition was evaluated using the EC30 concentration of fractalkine and as such obtained IC50 values are a good estimate of the Ki value, a measure for affinity (Table 22). The experiment was performed as described in Example 4.
For B18, the “% block” value was 64% and the IC50 was 10 nM. B19 was tested, and the “% block” value was 100% and the IC50 was 49 nM.

Target: T2, cynomolgus CX3CR1
Test: A647-fractalkine competition FACS, HEK293T cynomolgus CX3CR1
Excerpt: as §1, §2
B18 was tested, and the “% block” value was 92% and the IC50 was 68 nM. B19 was tested, and the “% block” value was 91% and the IC50 was 31 nM.

Target: T2, cynomolgus CX3CR1
Test: A647-fractalkine competition FACS, cynomolgus against human CX3CR1
Excerpt: as §1, §2
For B18, the “ratio (cynomolgus/human IC50)” value was 6.48. For B19, the “ratio (cynomolgus/human IC50)” value was 0.64.

What follows are binders tested against T1, human CX3CR1 (assay: periplasmic extract, A647-fractalkine competition FACS, CHO-huCX3CR1).
Excerpt: as §1
In the case of B20, the “% block” value is reported as 96%. In the case of B21, the “% block” value is reported as 78%. B22 was tested, and the “% block” value was 65.3%. B23 was tested, and the “% block” value was 73.5%. In the case of B24, the “% block” value is reported as 94.9%. In the case of B25, the “% block” value is reported as 82%. B18 was tested, and the “% block” value was 74.6%. With B26 the “% block” value was 90.8%. For B27, the “% block” value was 92.5%. For B19, the “% block” value was 86.6%. With B28 the “% block” value was 92.6%. With B29 the “% block” value was 94.4%. B30 was tested, and the “% block” value was 96.6%. For B31, the “% block” value was 92.1%. In the case of B32, the “% block” value is reported as 68.4%. In the case of B33, the “% block” value is reported as 69.4%.
